Results published in article PMC7192611, “A transient α-helix in the N-terminal RNA recognition motif of polypyrimidine tract binding protein senses RNA secondary structure”.

How the values were obtained:
PTB RRM1 WT [1] = molecular target: T1, PTB RRM1 WT (human, UniProt P26599-1 41-163); assay: NMR; docked alpha3 79%; ITC (30 C) and NMR (40 C): 20 mM NaCl, 10 mM NaH2PO4 pH 6.5. EMSA: 20 mM NaH2PO4 pH 7.2, 100 mM NaCl, 5 mM MgCl2, 5% glycerol, 1 mM DTT, 50 ug/ml yeast tRNA, 40 ug/ml BSA, room temperature; settings: protein: recombinant; hairpin, loop GCUUU
T1 sequence (P26599 41-163): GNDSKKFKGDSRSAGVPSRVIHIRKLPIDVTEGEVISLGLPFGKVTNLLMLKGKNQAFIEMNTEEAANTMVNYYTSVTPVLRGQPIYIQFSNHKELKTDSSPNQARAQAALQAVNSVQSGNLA

PTB RRM1 L151G = PTB RRM1 L151G (human, UniProt P26599-1 41-163, L151G); assay: NMR; alpha3 does not fold; ITC (30 C) and NMR (40 C): 20 mM NaCl, 10 mM NaH2PO4 pH 6.5. EMSA: 20 mM NaH2PO4 pH 7.2, 100 mM NaCl, 5 mM MgCl2, 5% glycerol, 1 mM DTT, 50 ug/ml yeast tRNA, 40 ug/ml BSA, room temperature; settings: protein: recombinant; tags: intein tag removed; label: 13C/15N in some NMR samples; hairpin, 5-nt loop UCUUU (positions 10-14)
PTB RRM1 L151G, sequence (P26599 41-163 L151G): as the sequence (P26599 41-163) above, with L111G counted along it

PTB RRM1 N143G/R146G = PTB RRM1 N143G/R146G (human, UniProt P26599-1 41-163, N143G;R146G); assay: ITC; Kd1; up to 3-fold; ITC (30 C) and NMR (40 C): 20 mM NaCl, 10 mM NaH2PO4 pH 6.5. EMSA: 20 mM NaH2PO4 pH 7.2, 100 mM NaCl, 5 mM MgCl2, 5% glycerol, 1 mM DTT, 50 ug/ml yeast tRNA, 40 ug/ml BSA, room temperature; settings: protein: recombinant; tags: intein tag removed; label: 13C/15N in some NMR samples; hairpin, 5-nt loop UCUUU (positions 10-14)
PTB RRM1 N143G/R146G, sequence (P26599 41-163 N143G/R146G): as the sequence (P26599 41-163) above, with N103G, R106G counted along it

PTB RRM1 K94A = PTB RRM1 K94A (human, UniProt P26599-1 41-163, K94A); assay: ITC; Kd1; almost 7-fold; ITC (30 C) and NMR (40 C): 20 mM NaCl, 10 mM NaH2PO4 pH 6.5. EMSA: 20 mM NaH2PO4 pH 7.2, 100 mM NaCl, 5 mM MgCl2, 5% glycerol, 1 mM DTT, 50 ug/ml yeast tRNA, 40 ug/ml BSA, room temperature; settings: protein: recombinant; tags: intein tag removed; label: 13C/15N in some NMR samples; hairpin, 5-nt loop UCUUU (positions 10-14)
PTB RRM1 K94A, sequence (P26599 41-163 K94A): as the sequence (P26599 41-163) above, with K54A counted along it

PTB RRM1 P142G = PTB RRM1 P142G (human, UniProt P26599-1 41-163, P142G); assay: NMR; alpha3 helicity increases on binding; ITC (30 C) and NMR (40 C): 20 mM NaCl, 10 mM NaH2PO4 pH 6.5. EMSA: 20 mM NaH2PO4 pH 7.2, 100 mM NaCl, 5 mM MgCl2, 5% glycerol, 1 mM DTT, 50 ug/ml yeast tRNA, 40 ug/ml BSA, room temperature; settings: protein: recombinant; tags: intein tag removed; label: 13C/15N in some NMR samples; hairpin, 5-nt loop UCUUU (positions 10-14)
PTB RRM1 P142G, sequence (P26599 41-163 P142G): as the sequence (P26599 41-163) above, with P102G counted along it

PTB RRM1 WT [2] = molecular target: T1, PTB RRM1 WT; assay: ITC; Kd1, two independent site model, 30 C; ITC (30 C) and NMR (40 C): 20 mM NaCl, 10 mM NaH2PO4 pH 6.5. EMSA: 20 mM NaH2PO4 pH 7.2, 100 mM NaCl, 5 mM MgCl2, 5% glycerol, 1 mM DTT, 50 ug/ml yeast tRNA, 40 ug/ml BSA, room temperature; settings: protein: recombinant; label: 13C/15N in some NMR samples; hairpin, 5-nt loop UCUUU (positions 10-14)
PTB RRM1 WT [3] = molecular target: T1, PTB RRM1 WT; assay: NMR; 45 C; modest shift changes; ITC (30 C) and NMR (40 C): 20 mM NaCl, 10 mM NaH2PO4 pH 6.5. EMSA: 20 mM NaH2PO4 pH 7.2, 100 mM NaCl, 5 mM MgCl2, 5% glycerol, 1 mM DTT, 50 ug/ml yeast tRNA, 40 ug/ml BSA, room temperature; settings: protein: recombinant; single strand
PTB RRM1 WT [4] = molecular target: T1, PTB RRM1 WT; assay: NMR; docked alpha3 78%; ITC (30 C) and NMR (40 C): 20 mM NaCl, 10 mM NaH2PO4 pH 6.5. EMSA: 20 mM NaH2PO4 pH 7.2, 100 mM NaCl, 5 mM MgCl2, 5% glycerol, 1 mM DTT, 50 ug/ml yeast tRNA, 40 ug/ml BSA, room temperature; settings: protein: recombinant; hairpin, loop UCUU
PTB RRM1 WT [5] = molecular target: T1, PTB RRM1 WT; assay: NMR; docked alpha3 49%; ITC (30 C) and NMR (40 C): 20 mM NaCl, 10 mM NaH2PO4 pH 6.5. EMSA: 20 mM NaH2PO4 pH 7.2, 100 mM NaCl, 5 mM MgCl2, 5% glycerol, 1 mM DTT, 50 ug/ml yeast tRNA, 40 ug/ml BSA, room temperature; settings: protein: recombinant; hairpin, UUCG tetraloop
PTB RRM1 WT [6] = molecular target: T1, PTB RRM1 WT; assay: NMR; docked alpha3 66%; ITC (30 C) and NMR (40 C): 20 mM NaCl, 10 mM NaH2PO4 pH 6.5. EMSA: 20 mM NaH2PO4 pH 7.2, 100 mM NaCl, 5 mM MgCl2, 5% glycerol, 1 mM DTT, 50 ug/ml yeast tRNA, 40 ug/ml BSA, room temperature; settings: protein: recombinant; hairpin, loop UCUGU
PTB RRM1 WT [7] = molecular target: T1, PTB RRM1 WT; assay: NMR; docked alpha3 55%; ITC (30 C) and NMR (40 C): 20 mM NaCl, 10 mM NaH2PO4 pH 6.5. EMSA: 20 mM NaH2PO4 pH 7.2, 100 mM NaCl, 5 mM MgCl2, 5% glycerol, 1 mM DTT, 50 ug/ml yeast tRNA, 40 ug/ml BSA, room temperature; settings: protein: recombinant; hairpin, loop UCGUU
PTB RRM1 WT [8] = molecular target: T1, PTB RRM1 WT; assay: NMR; alpha3 formed as with SL UCUUU; ITC (30 C) and NMR (40 C): 20 mM NaCl, 10 mM NaH2PO4 pH 6.5. EMSA: 20 mM NaH2PO4 pH 7.2, 100 mM NaCl, 5 mM MgCl2, 5% glycerol, 1 mM DTT, 50 ug/ml yeast tRNA, 40 ug/ml BSA, room temperature; settings: protein: recombinant; hairpin, 9-nt loop with UUCUU at its 5' end

GGGACCUGGGCUUUCCAGGUCCC (structured_RNA) [SL GCUUU]
binding result (PTB RRM1 WT [1]): binds

GGGACCUGGUCUUUCCAGGUCCC (structured_RNA) [SL UCUUU]
binding result (PTB RRM1 L151G): binds
binding signal (PTB RRM1 N143G/R146G): ~3 fold loss of affinity vs WT
binding signal (PTB RRM1 K94A): ~7 fold loss of affinity vs WT
binding result (PTB RRM1 P142G): binds
Kd (PTB RRM1 WT [2]): 100 ± 20 nM

CUCUCU (ssRNA) [CUCUCU ssRNA]
binding result (PTB RRM1 WT [3]): binds

GGGACCUGGUCUUCCAGGUCCC (structured_RNA) [SL UCUU_]
binding result (PTB RRM1 WT [4]): binds

GGGACCUGGUUCGCCAGGUCCC (structured_RNA) [SL UUCG]
binding result (PTB RRM1 WT [5]): binds

GGGACCUGGUCUGUCCAGGUCCC (structured_RNA) [SL UCUGU]
binding result (PTB RRM1 WT [6]): binds

GGGACCUGGUCGUUCCAGGUCCC (structured_RNA) [SL UCGUU]
binding result (PTB RRM1 WT [7]): binds

GAUGGAUUCUUAUGCUCCAUC (structured_RNA) [hsa-mir-136 stem-loop]
binding result (PTB RRM1 WT [8]): binds
